Like-named read-outs stand apart in the source and are kept apart here. Residues, ends and D or L forms follow the SMILES beside them.
Legend:
[1] = molecular target: T1, PepN (general aminopeptidase N) (Lactobacillus helveticus, UniProt S4THV9); experiment: product inhibition of H-Ala-pNA hydrolysis; […] residual activity at […]; type: biochemical; settings: read-out: % residual activity at 10 mM
T1 construct: His-tagged recombinant full-length PepN (monomer)
T1 sequence (S4THV9 1-844): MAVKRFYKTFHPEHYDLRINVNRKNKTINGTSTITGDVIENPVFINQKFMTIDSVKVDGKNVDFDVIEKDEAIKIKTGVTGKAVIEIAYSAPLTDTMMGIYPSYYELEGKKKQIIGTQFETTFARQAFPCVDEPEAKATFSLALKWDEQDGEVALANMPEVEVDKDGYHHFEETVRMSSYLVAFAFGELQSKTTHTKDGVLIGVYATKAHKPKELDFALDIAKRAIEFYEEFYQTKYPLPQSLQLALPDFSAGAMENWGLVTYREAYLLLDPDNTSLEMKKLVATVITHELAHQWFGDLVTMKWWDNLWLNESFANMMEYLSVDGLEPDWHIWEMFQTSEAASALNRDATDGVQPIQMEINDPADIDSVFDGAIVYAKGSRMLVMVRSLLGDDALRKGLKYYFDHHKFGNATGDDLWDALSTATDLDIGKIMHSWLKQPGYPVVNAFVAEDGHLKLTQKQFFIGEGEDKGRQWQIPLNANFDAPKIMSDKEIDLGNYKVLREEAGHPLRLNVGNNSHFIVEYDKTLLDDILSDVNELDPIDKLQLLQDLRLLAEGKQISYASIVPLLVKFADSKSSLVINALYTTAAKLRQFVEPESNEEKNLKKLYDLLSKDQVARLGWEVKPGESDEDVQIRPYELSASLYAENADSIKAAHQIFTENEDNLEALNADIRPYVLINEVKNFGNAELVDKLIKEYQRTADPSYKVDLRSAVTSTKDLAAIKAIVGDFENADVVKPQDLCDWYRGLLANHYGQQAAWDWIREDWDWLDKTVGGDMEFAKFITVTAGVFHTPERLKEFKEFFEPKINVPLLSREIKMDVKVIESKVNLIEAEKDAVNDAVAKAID

[2] = molecular target: T1, PepN (general aminopeptidase N); experiment: as above; type: biochemical; settings: read-out: % residual activity at 10 mM; remark: listed apart in the source
[3] = molecular target: T2, PepX (X-prolyl dipeptidyl aminopeptidase) (Lactobacillus helveticus, UniProt Q59485); experiment: inhibition of H-Ala-Pro-pNA hydrolysis; […] residual activity at […], […] at […]; type: biochemical
T2 construct: His-tagged recombinant full-length PepX (homodimer)
T2 sequence (Q59485 1-793): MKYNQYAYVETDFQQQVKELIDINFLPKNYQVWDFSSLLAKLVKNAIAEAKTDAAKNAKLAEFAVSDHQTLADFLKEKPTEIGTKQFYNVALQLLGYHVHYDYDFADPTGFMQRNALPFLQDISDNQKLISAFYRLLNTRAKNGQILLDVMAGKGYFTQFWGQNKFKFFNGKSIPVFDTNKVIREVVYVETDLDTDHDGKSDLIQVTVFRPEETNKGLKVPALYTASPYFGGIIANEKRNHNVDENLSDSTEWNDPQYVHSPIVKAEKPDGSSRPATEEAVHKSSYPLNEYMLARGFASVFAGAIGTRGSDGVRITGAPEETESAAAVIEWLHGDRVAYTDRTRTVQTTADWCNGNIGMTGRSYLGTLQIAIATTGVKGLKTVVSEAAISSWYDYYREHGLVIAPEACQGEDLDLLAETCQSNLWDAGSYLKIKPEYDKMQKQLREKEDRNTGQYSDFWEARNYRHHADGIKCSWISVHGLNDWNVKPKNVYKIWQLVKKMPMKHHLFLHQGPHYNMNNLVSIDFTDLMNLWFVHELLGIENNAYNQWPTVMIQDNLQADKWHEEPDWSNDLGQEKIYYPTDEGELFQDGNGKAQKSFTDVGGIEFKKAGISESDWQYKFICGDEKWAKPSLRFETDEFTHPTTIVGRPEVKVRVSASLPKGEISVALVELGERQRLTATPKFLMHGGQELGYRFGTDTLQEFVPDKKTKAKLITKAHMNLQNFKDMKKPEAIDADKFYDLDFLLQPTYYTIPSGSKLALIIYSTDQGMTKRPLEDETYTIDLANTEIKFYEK

[4] = molecular target: T2, PepX (X-prolyl dipeptidyl aminopeptidase); experiment: product inhibition kinetics with H-Ala-Pro-pNA, Lineweaver-Burk; type: biochemical
purified protein [5] = substrate: CC(C)C[C@H](N)C(=O)Nc1ccc([N+](=O)[O-])cc1; experiment: purified protein; type: biochemical, Lactobacillus helveticus; settings: Zn2+
purified protein [6] = substrate: NCCCC[C@H](N)C(=O)Nc1ccc([N+](=O)[O-])cc1; experiment: purified protein; type: biochemical, Lactobacillus helveticus; settings: Zn2+
purified protein [7] = substrate: C[C@H](N)C(=O)Nc1ccc([N+](=O)[O-])cc1; experiment: purified protein; type: biochemical, Lactobacillus helveticus; settings: Zn2+
purified protein [8] = substrate: N[C@@H](Cc1ccccc1)C(=O)Nc1ccc([N+](=O)[O-])cc1; experiment: purified protein; type: biochemical, Lactobacillus helveticus; settings: Zn2+
purified protein [9] = substrate: N=C(N)NCCC[C@H](N)C(=O)Nc1ccc([N+](=O)[O-])cc1; experiment: purified protein; settings: Zn2+
[10] = substrate: C[C@H](N)C(=O)N1CCC[C@H]1C(=O)Nc1ccc([N+](=O)[O-])cc1; experiment: enzyme kinetics, p-nitroaniline release, Hanes plot; Km; type: biochemical, Lactobacillus helveticus

Q: With `N[C@@H](Cc1ccccc1)C(=O)O` [L-Phe] as the molecule, how does the remaining activity at 10000 µM [1] read?
A: 24%

Q: Which remaining activity at 10000 µM [2] does the source give for `N=C(N)NCCC[C@H](N)C(=O)O` [L-Arg] here?
A: 19%

Q: For `O=S(=O)(F)Cc1ccccc1` [PMSF], which “% residual activity at 10 mM” value [3] is on record?
A: 11

Q: How did the Ki [4] turn out when `N[C@@H](Cc1ccccc1)C(=O)N1CCC[C@H]1C(=O)O` [H-L-Phe-L-Pro-OH] (H-Phe-Pro-OH) was run?
A: 30.1 mM

B1: PepN (general aminopeptidase N) (Lactobacillus helveticus) (protein)
chain: T1 sequence (S4THV9 1-844)
notes: His-tagged recombinant full-length PepN (monomer)
Q: How did the Km (purified protein [5]) turn out when B1 was run?
A: 170 µM

Q: What about the Vmax (purified protein [5]) of the same molecule?
A: 51100 µM/min

Q: What about the Km (purified protein [6]) of the same molecule?
A: 140 µM

Q: And the Vmax (purified protein [6])?
A: 93100 µM/min

Q: And the Km (purified protein [7])?
A: 430 µM

Q: What about the Vmax (purified protein [7]) of the same molecule?
A: 46100 µM/min

Q: And the Km (purified protein [8])?
A: 150 µM

Q: And the Vmax (purified protein [8])?
A: 15200 µM/min

Q: What about the Km (purified protein [9]) of the same molecule?
A: 140 µM

B2: PepX (X-prolyl dipeptidyl aminopeptidase) (Lactobacillus helveticus) (protein)
chain: T2 sequence (Q59485 1-793)
notes: His-tagged recombinant full-length PepX (homodimer)
Q: How did the Km [10] turn out when B2 was run?
A: 1300 µM

From article PMC3716637, “Characterization of the Recombinant Exopeptidases PepX and PepN from Lactobacillus helveticus ATCC 12046 Important for Food Protein Hydrolysis” (PLoS ONE, 2013)
